In patent US9273093B2, “α4β7 peptide dimer antagonists” (Protagonist Therapeutics, Inc., priority 2012, dated 2016):
Bridges are numbered along the chain shown (N, C = ends). Where no end group is shown, it is not given here. [ ]: non-standard residue; d: D form. NMeR = CN[C@@H](CCCNC(=N)N)C(=O)O; Pen = CC(C)(S)[C@H](N)C(=O)O

Experiment: Simulated Intestinal Fluid (SIF) Stability Assay
Type: in vitro ADME
Details: compared to SEQ ID NO: 39 with Cys or to monomer subunits
Procedure: Simulated Intestinal Fluid (SIF) Stability Assay
Studies were carried out in simulated intestinal fluid (SIF) to evaluate gastric stability of the dimer molecules of the instant invention. SIF was prepared by adding 6.8 g of monobasic potassium phosphate and 10.0 g of pancreatin to 1.0 L of water. After dissolution, the pH was adjusted to 6.8 using NaOH. DMSO stocks (2 mM) were first prepared for the test compounds. Aliquots of the DMSO solutions were dosed into 6 individual tubes, each containing 0.5 mL of SIF, which had been pre-warmed to 37° C.
The final test compound concentration was 20 μM. The vials were kept in a benchtop Thermomixer® for the duration of the experiment. At each timepoint (0, 5, 10, 20, 40, and 60 minutes), 1.0 mL of acetonitrile containing 1% formic acid was added to one vial to terminate the reaction. Samples were stored at 4° C. until the end of the experiment. […] Aliquots of the supernatant were removed, diluted 1:1 into distilled water containing internal standard, and analyzed by LCMS/MS. Percent remaining at each timepoint was calculated based on the peak area response ratio of test to compound to internal standard. Time 0 was set to 100%, and all later timepoints were calculated relative to time 0. Half-lives were calculated by fitting to a first-order exponential decay equation using GraphPad. […]

## SEQ ID NO: 102: homodimer of monomer subunit with Pen in place of Cys and N-Me-Arg, dimerized at C-termini (K[Pen][NMeR]SDTL[Pen]W; disulfide 2-8 (inferred); also: homodimer dimerized at C-termini)
  stability in simulated intestinal fluids (SIF) (in words): increased stability significantly
